In patent publication US20230203156A1 (published 2023) one finds EC50 and Kd data, which are given here for seven molecules.

The target in assay [1] is T1, human CD47 (human, UniProt Q08722 19-323). Description: FACS binding, C6 cells expressing human CD47. (A flow cytometer gives signals particle by particle.)
Assay [2] addresses T1, human CD47. As to the kind of experiment: cell binding (flow cytometry, C6 cells).
Assay [3] addresses cynomolgus MDR1 (Macaca fascicularis). As to the kind of experiment: FACS binding, 293T-cB1 cells.
Assay [4] concerns the target T2, human MDR1 (multidrug resistance protein 1) (UniProt P08183 1-1280). As to the kind of experiment: FACS binding, 293T-hB1 cells.
For a further assay, the target named is T3, cynomolgus CD47 (cynomolgus, UniProt A0A5F8AK49 19-323).
T3 chain: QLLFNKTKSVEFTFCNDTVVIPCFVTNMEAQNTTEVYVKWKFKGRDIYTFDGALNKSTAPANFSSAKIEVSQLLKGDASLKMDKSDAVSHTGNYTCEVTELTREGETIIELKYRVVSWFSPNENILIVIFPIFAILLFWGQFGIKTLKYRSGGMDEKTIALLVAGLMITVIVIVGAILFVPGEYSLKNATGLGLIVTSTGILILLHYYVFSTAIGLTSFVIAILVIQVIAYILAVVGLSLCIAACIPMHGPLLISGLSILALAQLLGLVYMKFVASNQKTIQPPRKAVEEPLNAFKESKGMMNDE
Description: FACS binding, C6-cKT14 cells.

In assay [5] the target is T1, human CD47. Description: FACS binding, C6-hKT14 cells.
The target in assay [6] is T2, human MDR1 (multidrug resistance …). As to the kind of experiment: FACS binding, 293T-hB1 cells. This is another data set of the same source.
Assay [7] deals with cynomolgus MDR1 (Macaca fascicularis). Description: FACS binding, 293T-cB1 cells. The source holds these as a separate data set.
Sequence of cynomolgus MDR1 (Macaca fascicularis) (chain, as listed by the source): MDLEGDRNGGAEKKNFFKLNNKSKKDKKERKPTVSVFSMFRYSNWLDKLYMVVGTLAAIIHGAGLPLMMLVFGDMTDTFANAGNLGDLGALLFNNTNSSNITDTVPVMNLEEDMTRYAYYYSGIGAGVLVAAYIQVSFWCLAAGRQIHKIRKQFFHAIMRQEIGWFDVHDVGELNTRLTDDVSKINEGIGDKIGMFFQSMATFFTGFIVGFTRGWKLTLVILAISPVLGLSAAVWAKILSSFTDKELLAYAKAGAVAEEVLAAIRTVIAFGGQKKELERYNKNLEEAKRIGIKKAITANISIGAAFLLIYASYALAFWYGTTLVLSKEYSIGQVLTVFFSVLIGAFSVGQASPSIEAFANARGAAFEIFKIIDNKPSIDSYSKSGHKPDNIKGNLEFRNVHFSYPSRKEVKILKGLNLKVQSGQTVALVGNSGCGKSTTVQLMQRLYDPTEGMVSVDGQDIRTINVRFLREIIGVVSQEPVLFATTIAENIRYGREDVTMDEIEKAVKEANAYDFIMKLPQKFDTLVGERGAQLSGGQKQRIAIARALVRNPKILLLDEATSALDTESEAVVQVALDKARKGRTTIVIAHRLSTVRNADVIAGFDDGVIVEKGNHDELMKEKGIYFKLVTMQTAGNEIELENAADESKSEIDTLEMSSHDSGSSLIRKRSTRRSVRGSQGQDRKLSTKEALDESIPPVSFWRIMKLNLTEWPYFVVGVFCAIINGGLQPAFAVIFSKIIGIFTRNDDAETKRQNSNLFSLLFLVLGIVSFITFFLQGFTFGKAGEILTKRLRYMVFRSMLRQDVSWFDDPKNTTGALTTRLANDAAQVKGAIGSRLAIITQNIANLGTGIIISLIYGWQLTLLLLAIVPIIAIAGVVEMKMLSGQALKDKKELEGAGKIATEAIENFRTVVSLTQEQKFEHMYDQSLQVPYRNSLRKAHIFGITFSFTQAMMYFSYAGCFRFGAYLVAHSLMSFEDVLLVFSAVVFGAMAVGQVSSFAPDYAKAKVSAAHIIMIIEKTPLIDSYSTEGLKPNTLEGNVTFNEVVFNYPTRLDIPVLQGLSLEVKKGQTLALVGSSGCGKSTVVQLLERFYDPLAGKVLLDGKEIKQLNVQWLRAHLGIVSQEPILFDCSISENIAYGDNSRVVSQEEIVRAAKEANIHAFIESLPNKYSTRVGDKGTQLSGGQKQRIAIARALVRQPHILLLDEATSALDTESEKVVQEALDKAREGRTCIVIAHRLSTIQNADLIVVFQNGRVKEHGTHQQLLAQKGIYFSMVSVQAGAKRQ
Assay [8] addresses T2, human MDR1 (multidrug resistance …). Description: FACS binding, 293T cells expressing human MDR1.

Where two headings read alike, the source gives them in different places.

B1: KT14.5F9hu scFv-B1.28.hu13 (bispecific antibody)
scFv: not shown
heavy: EVQLVESGGGLVKPGGSLRLSCAASGFTFGLYTMSWVRQAPGKGLEWVATISSGGSNTYYPDSVKGRFTISRDNAKNSLYLQMNSLRAEDTAVYYCARYYRYDAWFAYWGQGTLVTVSSASTKGPSVFPLAPSSKSTSGGTAALGCLVKDYFPEPVTVSWNSGALTSGVHTFPAVLQSSGLYSLSSVVTVPSSSLGTQTYICNVNHKPSNTKVDKRVEPKSCDKTHTCPPCPAPELLGGPSVFLFPPKPKDTLMISRTPEVTCVVVDVSHEDPEVKFNWYVDGVEVHNAKTKPREEQYNSTYRVVSVLTVLHQDWLNGKEYKCKVSNKALPAPIEKTISKAKGQPREPQVCTLPPSREEMTKNQVSLSCAVKGFYPSDIAVEWESNGQPENNYKTTPPVLDSDGSFFLVSKLTVDKSRWQQGNVFSCSVMHEALHNHYTQKSLSLSPGK
light: EVVLTQSPATLSLSPGERATLSCRSSQNIVHSTGNTYLDWYQQKPGQSPRLLIYKVSNRFSGVPARFSGSGSGTDFTLTISSLEPEDFAVYYCFQGSHIPRTFGGGTKLEIKRTVAAPSVFIFPPSDEQLKSGTASVVCLLNNFYPREAKVQWKVDNALQSGNSQESVTEQDSKDSTYSLSSTLTLSKADYEKHKVYACEVTHQGLSSPVTKSFNRGEC
What is called EC50 is the concentration that produces a half-maximal response. Lower therefore signals higher potency in that assay. B1: the EC50 in the assay with human CD47 [1] worked out at 1.4 nM.

B2: KT14.B6H12hu scFv-B1.28.hu13 (bispecific antibody)
scFv: not shown
heavy: B1 heavy
light: B1 light
Turning to B2, a half-maximal response with human CD47 [1] (EC50) required 1.5 nM.

B3: KT14.B6H12hu scFv-B1.261.hu1 (bispecific antibody)
scFv: not shown
heavy: EVQLQESGPGLVKPSETLSLTCTVSGFSLTSYGVHWVRQPPGKGLEWLVVIWSDGSTTYNSALKSRLTISKDNSKNQVSLKLSSVTAADTAVYYCARHGRWLLQRGGAMDYWGQGTMVTVSSASTKGPSVFPLAPSSKSTSGGTAALGCLVKDYFPEPVTVSWNSGALTSGVHTFPAVLQSSGLYSLSSVVTVPSSSLGTQTYICNVNHKPSNTKVDKRVEPKSCDKTHTCPPCPAPELLGGPSVFLFPPKPKDTLMISRTPEVTCVVVDVSHEDPEVKFNWYVDGVEVHNAKTKPREEQYNSTYRVVSVLTVLHQDWLNGKEYKCKVSNKALPAPIEKTISKAKGQPREPQVCTLPPSREEMTKNQVSLSCAVKGFYPSDIAVEWESNGQPENNYKTTPPVLDSDGSFFLVSKLTVDKSRWQQGNVFSCSVMHEALHNHYTQKSLSLSPGK
light: DVQMTQSPSSLSASVGDRVTITCRASQNVGSYIAWYQQKPGKSPKALIYSASYRSSGVPSRFSGSGAGTDFTLTISSLQPEDFATYFCQQYNSYPLTFGGGTKLEIKRTVAAPSVFIFPPSDEQLKSGTASVVCLLNNFYPREAKVQWKVDNALQSGNSQESVTEQDSKDSTYSLSSTLTLSKADYEKHKVYACEVTHQGLSSPVTKSFNRGEC
Molecule B3 showed an EC50 in the assay with human CD47 [2] of 26 nM.

B4: B1.261.huH2(VH3)-huL1 (antibody, V domains shown)
VH: EVQLVESGGGLIQPGGSLRLSCAVSGFSLTSYGVHWVRQPPGKGLEWLVVIWSDGSTTYNSALKSRLTISKDNSKNTVYLQMNSLRAEDTAVYYCARHGRWLLQRGGAMDYWGQGTMVTVSS
VL: DVQMTQSPSSLSASVGDRVTITCRASQNVGSYIAWYQQKPGKSPKALIYSASYRSSGVPSRFSGSGAGTDFTLTISSLQPEDFATYFCQQYNSYPLTFGGGTKLEIK
In general, Kd refers to the concentration at which binding is half-saturated. B4: the results for the Kd in assay [3] and in assay [4] were 114 nM and 50 nM, respectively.

B5: B1.28DD/KT14KK/28 (antibody)
chain 1: EVKLVESGGGLVKPGGSLKLSCAASGFTFGLYTMSWVRQTPERRLEWVATISSGGSNTYYPDSVKGRFTISRDNAKNNLFLQMNSLRSEDTALYYCARYYRYDAWFAYWGQGTLVTVSS
chain 2: QVQLVQSGAEVKKPGASVKVSCKASGYTFTNYNMHWVRQAPGQRLEWMGTIYPGNDDTSYNQKFKDRVTITADTSASTAYMELSSLRSEDTAVYYCARGGYRAMDYWGQGTLVTVSS
chain 3: DVLLTQTPLSLPVSLGDQASISCRSSQNIVHSTGNTYLDWYLQKPGQSPKLLIYKVSNRFSGVPDRFSGSGSGTDFTLKISRVEAEDLGVYFCFQGSHIPRTFGGGTKLEIK
Take B5: the half-maximal effective concentration (EC50) with cynomolgus CD47 stood at 83 nM; in the assay with human CD47 [5], 40 nM.

B6: B1.28 (antibody, V domains shown)
VH: B5 chain 1
VL: B5 chain 3
Take B6: the figures for the Kd in assay [6] and in [7] were 17 nM and 97 nM, respectively. In [8], this molecule returned an EC50 of 4.8 nM.

B7: B1.261 (antibody, V domains shown)
VH: QVQLKESGPGLVAPSQSLSITCTVSGFSLTSYGVHWVRQPPGKGLEWLVVIWSDGSTTYNSALKSRLSISKDNSKSQVFLKMNSLQIDDTAMYYCARHGRWLLQRGGAMDYWGQGTSVTVSS
VL: DVVMTQAPKFMSTSVGDRVSVTCRASQNVGSYIAWYQQKLGQSPKALIYSASYRCSGVPDRFTGSGAGTDFTLTIRNVQSEDLAEYFCQQYNSYPLTFGGGTKLEIK
B7: the equilibrium dissociation constant (Kd) in assay [3] was determined as 371 nM; in [4], 188 nM.
